The target in test [1] is T1, human cluster designation 34 (CD34) antigen on the surface of TF-1 cells (human, UniProt P28906 32-385).
T1 construct: whole, on cells; native on TF-1 cells; also called CD34 membrane-protein; CD34-receptor
T1 sequence (looked up): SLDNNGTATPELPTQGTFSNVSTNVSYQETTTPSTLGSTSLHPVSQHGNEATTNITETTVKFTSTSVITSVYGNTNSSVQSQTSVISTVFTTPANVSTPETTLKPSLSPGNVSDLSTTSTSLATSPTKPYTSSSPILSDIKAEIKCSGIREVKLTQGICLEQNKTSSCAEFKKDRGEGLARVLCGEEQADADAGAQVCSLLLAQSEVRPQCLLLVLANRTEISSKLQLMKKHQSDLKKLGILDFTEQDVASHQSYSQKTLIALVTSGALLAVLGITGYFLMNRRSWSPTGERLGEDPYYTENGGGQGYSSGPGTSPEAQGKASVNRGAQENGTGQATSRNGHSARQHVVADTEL
Briefly: cell capture assay, conditioned medium of HEK293T cells, TF-1 cells, luminescence. Here is the method: (§1) 96-well microplates (Maxisorp, Nalge Nunc) were coated with polyclonal anti-mouse IgG antibody developed in goats (Jackson Immuno Research, Suffolk, UK) or in sheep (Baxter Oncology, Halle, Germany). After washing with PBS, either conditioned medium containing the anti-CD34 antibody was added and incubated overnight at 4° C. or purified antibody was diluted in DMEM medium (Invitrogen/Gibco, Lofer, Austria) supplemented with 10% FCS (PAA Laboratories, Pasching, Austria) and 1% penicillin/streptomycin (Invitrogen/Gibco) prior to incubation. Subsequently, plates were washed with PBS and TF-1 cells (ATCC CRL-2003) were added at a cell density of 1×10⁵ cells/mL. TF-1 cells were cultivated in RPMI medium (Invitrogen/Gibco). The bound anti-CD34 antibody captures the TF-1 cells by binding to the CD34 present on the surface of the cells. After washing steps to remove the unbound cells, the Cell Titer-Glo reagent from the CellTiter-Glo Luminescent Cell Viability Assay Kit (Promega, Mannheim, Germany) was added. This reagent gives a luminescence signal proportional to the number of viable cells based on an ATP-dependent luciferase reaction (FIG. 3).
The expression of mouse IgG was first verified by the Easy Titer Mouse IgG Assay (Pierce) according to the manufacturer's instructions. To test the functionality of the antibodies the supernatants were tested in the cell capture assay. […]

Test [2] addresses T1, human cluster designation 34 (CD34) …. Put plainly: cell capture assay, dilution series of purified antibody, TF-1 cells. Here is the method: as §1
Furthermore, in a large scale expression experiment 23 triple flasks (Nunclon Surface, Nalge Nunc) and one cell factory (Nalge Nunc) were co-transfected and incubated for three weeks. […]

B1: recombinant anti-CD34 antibody transiently expressed in HEK293T cells (co-transfection of pCMV-9C5lc and pCMV-9C5hc) (antibody, V domains shown)
VH: EVQLQQSGPELVKPGASVKISCKASGYSFIGYFMNWVMQSHGRSLEWIGRINPYNGYTFYNQKFKGKATLTVDKSSSTAHMELRSLASEDSAVYYCARHFRYDGVFYYAMDYWGQGTSVTVSS
VL: QLVLTQSSSASFSLGASAKLTCTLSSQHSTFTIEWYQQQPLKPPKYVMDLKKDGSHSTGDGVPDRFSGSSSGADRYLSISNIQPEDEATYICGVGDTIKEQFVYVFGGGTKVTVLG
notes: Tested as conditioned medium and as purified antibody, captured on plates coated with anti-mouse IgG; also called anti-CD34 9C5 antibody; transiently expressed recombinant anti-CD34 antibody
Consider B1, for which the binding result in test [1] is listed as “binds”.

B2: hybridoma-derived anti-CD34 antibody secreted by the mouse hybridoma cell line 9C5/9069 (antibody, V domains shown)
VH: B1 VH
VL: B1 VL
notes: also called hybridoma supernatant
As to B2, the binding result in test [2] was “binds”.

For the origin of these results see patent US20130143238A1 (BAXTER HEALTHCARE S A, published 2013).
